Target: myelin basic protein, 32P-labeled on tyrosine residues

dephosphorylation (radioactivity released as inorganic phosphate, percentage of total input): > 30%
Substance: PTPL1 protein tyrosine phosphatase (from UniProt Q12923) (enzyme)

Reference: US6066472
